According to paper PMC3472128 (Structure (London, England : 1993), 2012):
Values joined by “and” are separate entries in the source; they are usually repeats but may differ in a detail not shown here. Identical values can stand only once.

T1: Smad7 PY peptide Ac-ELESPPPPYSRYPMD-NH2 (203-217) (human)
T1 peptide: Ac-ELESPPPPYSRYPMD-NH2


Target: T1, Smad7 PY peptide Ac-ELESPPPPYSRYPMD-NH2 …
Assay: ITC

Binder | Kd [µM] | stoichiometry N | fold weaker dissociation constant than YAP WW1 [fold]
DELGPLPPGWEVRSTVSGRIYFVDHNNRTTQFTDPRLH (domain or fragment, human, UniProt Q9HCE7-2 277-314, looked up) [Smurf1 WW2 domain (residues 277-314)] | 4.1 ± 0.6 | 1 | –
Smurf2 WW2-WW3 pair (domain or fragment) PPDLPEGYEQRTTQQGQVYFLHTQTGVSTWHDPRVPRDLSNINCEELGPLPPGWEIRNTATGRVYFVDHNNRTTQFTDPRLSAN | 1.7 ± 0.3 | – | –
GPLPPGWEERIHLDGRTFYIDHNSKITQWEDPRL (domain or fragment) [Nedd4L WW4 domain] | – | 1 | –
Nedd4L WW1 domain (domain or fragment) not shown | – | 1 | –
Nedd4L WW2 domain (364-403) (domain or fragment) not shown | – | 1 | –
Nedd4L WW3-WW4 pair (domain or fragment) SFLPPGWEMRIAPNGRPFFIDHNTKTTTWEDPRLKFPVHMRSKTSLNPNDLGPLPPGWEERIHLDGRTFYIDHNSKITQWEDPRL | – | 1 | –
SASGPLPDGWEQAMTQDGEIYYINHKNKTTSWLDPRLDPR (domain or fragment, human, UniProt P46937 227-266, looked up) [YAP WW2 domain (residues 227-266)] | – | – | 9
Nedd4L WW2-WW3 pair (domain or fragment) TPGLPSGWEERKDAKGRTYYVNHNNRTTTWTRPIMQLAEDGASGSATNSNNHLIEPQIRRPRSLSSPTVTLSAPLEGAKDSPVRRAVKDTLSNPQSPQPSPYNSPKPQHKVTQSFLPPGWEMRIAPNGRPFFIDHNTKTTTWEDPRL | – | 2 equivalents of peptide per protein | –
SFLPPGWEMRIAPNGRPFFIDHNTKTTTWEDPRL (domain or fragment) [Nedd4L WW3 domain] | – | 1 | –
Smurf1 WW1-WW2 pair (domain or fragment) SPELPEGYEQRTTVQGQVYFLHTQTGVSTWHDPRIPRDLNSVNCDELGPLPPGWEVRSTVSGRIYFVDHNNRTTQFTDPRLH | 1.7 ± 0.3 | 0.7 | –
Nedd4L WW1-WW2 pair (domain or fragment) not shown | – | 1 | –
YAP WW1-WW2 pair (domain or fragment) SSFEIPDDVPLPAGWEMAKTSSGQRYFLNHIDQTTTWQDPRKAMLSQMNVTAPTSPPVQQNMMNSASGPLPDGWEQAMTQDGEIYYINHKNKTTSWLDPRLDPR | 9.8 ± 0.9 | 1 | –
SSFEIPDDVPLPAGWEMAKTSSGQRYFLNHIDQTTTWQDPRKAM (domain or fragment, human, UniProt P46937 163-206, looked up) [YAP WW1 domain (residues 163-206)] | 6.9 ± 0.28 | – | –
Smurf2 WW3 domain (297-333) (domain or fragment) not shown | 4.1 | 1 | –

Target: T1, Smad7 PY peptide Ac-ELESPPPPYSRYPMD-NH2 …
Assay: ITC
Remark: another data set of the same source

Binder | Kd [µM]
Smurf2 WW2-WW3 pair (domain or fragment) PPDLPEGYEQRTTQQGQVYFLHTQTGVSTWHDPRVPRDLSNINCEELGPLPPGWEIRNTATGRVYFVDHNNRTTQFTDPRLSAN | 0.7 ± 0.3
Smurf1 WW1-WW2 pair (domain or fragment) SPELPEGYEQRTTVQGQVYFLHTQTGVSTWHDPRIPRDLNSVNCDELGPLPPGWEVRSTVSGRIYFVDHNNRTTQFTDPRLH | 0.7 ± 0.3

Target: T1, Smad7 PY peptide Ac-ELESPPPPYSRYPMD-NH2 …
Assay: ITC
Remark: another data set of the same source

Binder | Kd [µM]
Smurf2 WW2-WW3 pair (domain or fragment) PPDLPEGYEQRTTQQGQVYFLHTQTGVSTWHDPRVPRDLSNINCEELGPLPPGWEIRNTATGRVYFVDHNNRTTQFTDPRLSAN | 5 ± 0.3
Smurf1 WW1-WW2 pair (domain or fragment) SPELPEGYEQRTTVQGQVYFLHTQTGVSTWHDPRIPRDLNSVNCDELGPLPPGWEVRSTVSGRIYFVDHNNRTTQFTDPRLH | 5 ± 0.3

Target: the molecule itself
Assay: native MS

Binder | stoichiometry N
Smurf2 WW2-WW3 pair (domain or fragment) PPDLPEGYEQRTTQQGQVYFLHTQTGVSTWHDPRVPRDLSNINCEELGPLPPGWEIRNTATGRVYFVDHNNRTTQFTDPRLSAN | 2 and 3

Target: the molecule itself
Assay: NMR

Binder | stoichiometry N
SPELPEGYEQRTTVQGQVYFLHTQTGVSTWHDPRIPRD (domain or fragment, human, UniProt Q9HCE7-2 233-270, looked up) [Smurf1 WW1 domain (residues 233-270)] | 2

Target: T1, Smad7 PY peptide Ac-ELESPPPPYSRYPMD-NH2 …
Assay: ITC
Remark: another data set of the same source

Binder | Kd [µM] | fold improvement of affinity against wild-type YAP WW2 [fold] | fold reduction of affinity against the wild-type WW1-WW2 pair [fold] | fold reduction of affinity against wild-type YAP WW1 [fold]
DELGPLPPGWEVRSTVSGEIYFVDHNNRTTQFTDPRLH (domain or fragment, human, UniProt Q9HCE7-2 277-314, looked up) [Smurf1 WW2 domain Arg295Glu] | 48.6 ± 6.4 | – | – | –
Nedd4L WW2 domain Lys378/Arg380 to Glu (domain or fragment) not shown | 27.3 ± 2.2 | – | – | –
Nedd4L WW2 domain Arg380Glu (domain or fragment) not shown | 15.4 ± 3.5 | – | – | –
Nedd4L WW2 domain Lys378Glu (domain or fragment) not shown | 23.5 ± 1.5 | – | – | –
SASGPLPDGWEQAMTQQGQIYYINHKNKTTSWLDPRLDPR (domain or fragment, human, UniProt P46937 227-266, looked up) [YAP WW2 domain Asp243 and Glu245 to Glutamine] | – | 2 | – | –
Smurf1 WW1-WW2 pair Arg243Ala (domain or fragment) SPELPEGYEQATTVQGQVYFLHTQTGVSTWHDPRIPRDLNSVNCDELGPLPPGWEVRSTVSGRIYFVDHNNRTTQFTDPRLH | – | – | 3 | –
Smurf1 WW1-WW2 pair Arg243Glu (domain or fragment) SPELPEGYEQETTVQGQVYFLHTQTGVSTWHDPRIPRDLNSVNCDELGPLPPGWEVRSTVSGRIYFVDHNNRTTQFTDPRLH | – | – | 10 | –
Smurf1 WW1-WW2 pair Gln247 and Gln249 to Glu (domain or fragment) SPELPEGYEQRTTVEGEVYFLHTQTGVSTWHDPRIPRDLNSVNCDELGPLPPGWEVRSTVSGRIYFVDHNNRTTQFTDPRLH | – | – | 3 | –
Smurf1 WW1-WW2 pair Gln249Glu (domain or fragment) SPELPEGYEQRTTVQGEVYFLHTQTGVSTWHDPRIPRDLNSVNCDELGPLPPGWEVRSTVSGRIYFVDHNNRTTQFTDPRLH | – | – | 3 | –
SSFEIPDDVPLPAGWEMAKTSSGERYFLNHIDQTTTWQDPRKAM (domain or fragment, human, UniProt P46937 163-206, looked up) [YAP WW1 domain Q186E] | – | – | – | 2
GPLPPGWEIRNTATGEVYFVDHNNRTTQFTDPRLSAN (domain or fragment, human, UniProt Q9HAU4 297-333, looked up) [Smurf2 WW3 domain R312E] | 34.2 ± 1.6 | – | – | –
